In patent WO2013190679A1 (dated 2013):

B1: mouse anti-LOX-1 monoclonal antibody #10-1 (antibody, V domains shown)
VH: EVKLLESGGGLVQPGGSLKLSCAVSGFDFSRYWMSWVRQAPGKGLEWIGEINPDSSTINFTPSLKDKFIVSRDNAKNTLYLQMSKVRSEDTALYYCARNDVLLGAMDYWGQGTSVTVSS
VL: DVLMTQTPLSLPVSLGDQASISCRSSQTIVHSNGKTYLEWYLQKPGQSPKLLIYKVSNRFSGVPDRFSGSGSGTDFTLKISRVEAEDLGVYYCFQGSHVPLTFGAGTKLELK
notes: Whole mouse IgG1, kappa from the hybridoma; also called anti-LOX-1 antibody #10-1; IgG type of mouse anti-LOX-1 antibody #10-1
B2: Fv-type anti-LOX-1 antibody (scFv)
scFv: EVKLLESGGGLVQPGGSLKLSCAVSGFDFSRYWMSWVRQAPGKGLEWIGEINPDSSTINFTPSLKDKFIVSRDNAKNTLYLQMSKVRSEDTALYYCARNDVLLGAMDYWGQGTSVTVSSGGGGSGGGGSGGGGSDVLMTQTPLSLPVSLGDQASISCRSSQTIVHSNGKTYLEWYLQKPGQSPKLLIYKVSNRFSGVPDRFSGSGSGTDFTLKISRVEAEDLGVYYCFQGSHVPLTFGAGTKLELK
notes: The VH gene was amplified with the #10-1 heavy chain secretion signal; Expressed in FreeStyle 293 and purified by the His tag; also called Fv type antibody; Fv-type antibody; not shown: C-terminal V5 and 6xHis tag from the pEF6/V5/His vector

How the values were obtained:
[1] = target: T1, BSA (negative control, Sigma) (UniProt P02769 25-607); test: ELISA, BSA immobilised, HRP anti-mouse IgG
T1 sequence (P02769 25-607 limits assumed): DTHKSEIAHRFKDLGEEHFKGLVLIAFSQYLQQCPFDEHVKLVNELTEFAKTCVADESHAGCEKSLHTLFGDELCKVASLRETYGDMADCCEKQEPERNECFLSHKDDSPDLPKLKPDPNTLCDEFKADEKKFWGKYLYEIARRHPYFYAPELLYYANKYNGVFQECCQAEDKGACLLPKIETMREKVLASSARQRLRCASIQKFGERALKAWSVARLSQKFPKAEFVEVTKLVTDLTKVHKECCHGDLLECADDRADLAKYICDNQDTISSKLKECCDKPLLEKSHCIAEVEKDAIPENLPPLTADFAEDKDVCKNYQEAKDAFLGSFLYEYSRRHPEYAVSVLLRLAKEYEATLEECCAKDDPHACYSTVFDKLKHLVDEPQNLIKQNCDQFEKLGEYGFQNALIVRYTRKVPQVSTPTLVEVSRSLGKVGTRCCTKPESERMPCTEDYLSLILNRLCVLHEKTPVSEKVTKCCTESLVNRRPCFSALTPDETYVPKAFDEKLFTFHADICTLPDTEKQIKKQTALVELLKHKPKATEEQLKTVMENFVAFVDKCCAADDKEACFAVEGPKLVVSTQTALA

[2] = target: T2, recombinant human LOX-1 protein (61-273aa) (human, UniProt P78380 61-273); test: ELISA, LOX-1 (61-273aa) immobilised, HRP anti-mouse IgG
[3] = target: T1, BSA (negative control, Sigma); test: ELISA, BSA immobilised, HRP anti-V5 tag
[4] = target: T2, recombinant human LOX-1 protein …; test: ELISA on immobilised LOX-1; protein concentration at the inflection point of a 4-parameter logistic fit

Binder	binding result [1]	binding result [2]	binding result [3]	EC50 [4] [µg/mL]
B1	no binding	binds	–	–
B2	–	–	no binding	2.91
